According to the supplement of paper PMC7877785:
± gives the uncertainty stated by the source.

Test: self-splicing fitness, log relative to wild type (ln ratio); higher = more splicing; Tetrahymena group I intron in knt gene, E. coli kanamycin selection, DiMSum; sequences stand for … in CUCUCU…GGAGGGAAAAGUUAUCAGGCAUGCACCUGGUAGCUAGUCUUUAAACCAAUAGAUUGCAUCGGUUUAAAAGGCAAGACCGUCAAAUUGCGGGAAAGGGGUCAACAGCCGUUCAGUACCAAGUCUCAGGGGAAACUUUGAGAUGGCCUUGCAAAGGGUAUGGUAAUAAGCUGACGGACAUGGUCCUAACCACGCAGCCAAGUCCUAAGUCAACAGAUCUUCUGUUGAUAUGGAUGCAGUUCACAGACUAAAUGUCGGUCGGGGAAGAUGUAUUCUUCUCAUAAGAUAUAGUCGGACCUCUCCUUAAUGGGAGCUAGCGGAUGAAGUGAUGCAACACUGGAGCCGCUGGGAACUAAUUUGUAUGCGAAAGUAUAUUGAUUAGUUUUGGAGUACUCGUGGUCG
Method in brief: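 Six replicate transformations of E. coli BL21(DE3) with a pET-22b(+) library were grown overnight at 37°C or 30°C. The library randomised all eight P1ex-region intron nucleotides, the intron lying in the knt kanamycin-resistance gene, and plates were LB agar with or without 25 μg/mL kanamycin plus 100 μg/mL carbenicillin, 50 μM IPTG and 0.2% rhamnose. Pooled colonies were amplicon-sequenced on an Illumina HiSeq 2500, and fitness is the DiMSum error-weighted combination of wild-type-normalised replicate fold changes, kanamycin versus none.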

Row | Sequence | self-splicing fitness (ln) (30 °C) | self-splicing fitness (ln) (37 °C)
1 | AGGAAGCAAUAUUACGGAGG | -2.71 ± 0.34 | -2.28 ± 0.35
2 | AGGAAGCAAUAUUACGGCUA | -0.35 ± 0.11 | 0.0571 ± 0.15
3 | AGGAAGCAAUAUUACGGGCU | -1.72 ± 0.12 | -0.915 ± 0.13
4 | AGGAAGCAAUAUUACGGGUA | -2 ± 0.24 | -1.6 ± 0.21
5 | AGGAAGCAAUAUUACGGUGG | -3.94 ± 0.22 | -1.64 ± 0.28
6 | AGGAAGCAAUAUUACGUACC | -0.353 ± 0.12 | -0.748 ± 0.16
7 | AGGAAGCAAUAUUACGUAGU | -2.73 ± 0.15 | -2.63 ± 0.21
8 | AGGAAGCAAUAUUACGUCCG | -0.623 ± 0.16 | 0.408 ± 0.2
9 | AGGAAGCAAUAUUACGUCGC | -2.62 ± 0.28 | -2.06 ± 0.24
10 | AGGAAGCAAUAUUACGUGAC | -3.65 ± 0.22 | -2.45 ± 0.15
11 | AGGAAGCAAUAUUACGUGUC | -3.14 ± 0.27 | -1.57 ± 0.19
12 | AGGCAGCAAUAUUACGAAAG | -3.39 ± 0.22 | -2.46 ± 0.22
13 | AGGCAGCAAUAUUACGACCU | -1.51 ± 0.14 | -1.28 ± 0.17
14 | AGGCAGCAAUAUUACGACUA | 0.127 ± 0.11 | -0.125 ± 0.12
15 | AGGCAGCAAUAUUACGAGCG | -1.13 ± 0.074 | 0.237 ± 0.088
16 | AGGCAGCAAUAUUACGAGGG | -2.52 ± 0.11 | -2.83 ± 0.23
17 | AGGCAGCAAUAUUACGAUUC | -1.71 ± 0.13 | -0.305 ± 0.16
18 | AGGCAGCAAUAUUACGCAUG | -2.69 ± 0.17 | -0.809 ± 0.17
19 | AGGCAGCAAUAUUACGCCCU | -2.89 ± 0.4 | –
20 | AGGCAGCAAUAUUACGCCGG | -1.09 ± 0.15 | -1.66 ± 0.17
21 | AGGCAGCAAUAUUACGCGCC | -2.4 ± 0.32 | -0.401 ± 0.29
22 | AGGCAGCAAUAUUACGGACA | -0.916 ± 0.12 | -0.346 ± 0.13
23 | AGGCAGCAAUAUUACGGCCU | -3.36 ± 0.18 | -2.37 ± 0.24
24 | AGGCAGCAAUAUUACGGGAC | -3.48 ± 0.23 | -1.94 ± 0.19
25 | AGGCAGCAAUAUUACGGUAU | -1.79 ± 0.093 | -0.467 ± 0.1

Row | Sequence | self-splicing fitness (ln) (30 °C) | self-splicing fitness (ln) (37 °C)
26 | AGGCAGCAAUAUUACGGUCA | -0.0713 ± 0.069 | -0.148 ± 0.079
27 | AGGCAGCAAUAUUACGUCAC | -1.74 ± 0.13 | -1.25 ± 0.28
28 | AGGCAGCAAUAUUACGUCUC | -4.52 ± 0.23 | -2.03 ± 0.14
29 | AGGCAGCAAUAUUACGUGGC | -2.88 ± 0.2 | -2.58 ± 0.22
30 | AGGCAGCAAUAUUACGUGUA | -2.19 ± 0.1 | -1.09 ± 0.11
31 | AGGCAGCAAUAUUACGUUCG | -0.642 ± 0.079 | -0.181 ± 0.11
32 | AGGGAGCAAUAUUACGAAGU | -2.4 ± 0.37 | -2.14 ± 0.32
33 | AGGGAGCAAUAUUACGACAC | – | -1.18 ± 0.29
34 | AGGGAGCAAUAUUACGACAG | -2.9 ± 0.13 | -2.62 ± 0.22
35 | AGGGAGCAAUAUUACGACCU | -4.11 ± 0.33 | -1.67 ± 0.25
36 | AGGGAGCAAUAUUACGAGAG | -3.23 ± 0.4 | -3.84 ± 0.46
37 | AGGGAGCAAUAUUACGAGUC | -2.9 ± 0.3 | –
38 | AGGGAGCAAUAUUACGAUUU | -2.26 ± 0.18 | -1.92 ± 0.29
39 | AGGGAGCAAUAUUACGCAAG | – | -1.54 ± 0.3
40 | AGGGAGCAAUAUUACGCCAU | -3.13 ± 0.43 | –
41 | AGGGAGCAAUAUUACGCCUA | -1.43 ± 0.26 | -1.68 ± 0.21
42 | AGGGAGCAAUAUUACGCGCU | -2.13 ± 0.23 | -0.719 ± 0.39
43 | AGGGAGCAAUAUUACGCGUU | – | -2.46 ± 0.44
44 | AGGGAGCAAUAUUACGGUAA | – | -2.46 ± 0.44
45 | AGGGAGCAAUAUUACGGUUA | -2.53 ± 0.17 | -2.98 ± 0.28
46 | AGGGAGCAAUAUUACGGUUC | – | -1.7 ± 0.42
47 | AGGGAGCAAUAUUACGUAAA | -3.55 ± 0.31 | -2.73 ± 0.44
48 | AGGUAGCAAUAUUACGAAUA | -2.28 ± 0.026 | -1.51 ± 0.037
49 | AGGUAGCAAUAUUACGACGU | 0.156 ± 0.014 | 0.233 ± 0.033
50 | AGGUAGCAAUAUUACGAGCU | -0.0909 ± 0.015 | -0.123 ± 0.034

Row | Sequence | self-splicing fitness (ln) (30 °C) | self-splicing fitness (ln) (37 °C)
51 | AGGUAGCAAUAUUACGAGUC | -3.864 ± 0.037 | -2.49 ± 0.043
52 | AGGUAGCAAUAUUACGAUGA | -0.948 ± 0.016 | -0.562 ± 0.034
53 | AGGUAGCAAUAUUACGCCCC | -1.92 ± 0.044 | -1.56 ± 0.063
54 | AGGUAGCAAUAUUACGCUCC | -3.31 ± 0.052 | -2.43 ± 0.064
55 | AGGUAGCAAUAUUACGCUGG | -3.816 ± 0.035 | -2.83 ± 0.046
56 | AGGUAGCAAUAUUACGGAGG | -4.103 ± 0.034 | -3.11 ± 0.043
57 | AGGUAGCAAUAUUACGGCCC | -2.77 ± 0.044 | -1.91 ± 0.058
58 | AGGUAGCAAUAUUACGGCGU | -0.0406 ± 0.013 | 0.231 ± 0.033
59 | AGGUAGCAAUAUUACGGGAG | -3.83 ± 0.03 | -2.39 ± 0.038
60 | AGGUAGCAAUAUUACGGUCG | -0.351 ± 0.014 | -0.0478 ± 0.034
61 | AGGUAGCAAUAUUACGGUGA | -1.732 ± 0.017 | -1.06 ± 0.033
62 | AGGUAGCAAUAUUACGUACU | -0.29 ± 0.014 | -0.101 ± 0.034
63 | AGGUAGCAAUAUUACGUCAU | -2.147 ± 0.016 | -1.03 ± 0.034
64 | AGGUAGCAAUAUUACGUCGG | -2.803 ± 0.022 | -1.63 ± 0.036
65 | AGGUAGCAAUAUUACGUGGC | -3.619 ± 0.028 | -2.74 ± 0.042
66 | AGUAAGCAAUAUUACGAAAG | -4.26 ± 0.37 | –
67 | AGUAAGCAAUAUUACGAAGG | -3.7 ± 0.2 | -2.07 ± 0.26
68 | AGUAAGCAAUAUUACGACUG | -1.45 ± 0.12 | 0.23 ± 0.15
69 | AGUAAGCAAUAUUACGAGAG | -2.28 ± 0.24 | -2.49 ± 0.29
70 | AGUAAGCAAUAUUACGAGCC | -0.632 ± 0.16 | -0.472 ± 0.17
71 | AGUAAGCAAUAUUACGCACU | -3.07 ± 0.29 | -1.79 ± 0.29
72 | AGUAAGCAAUAUUACGCAGG | -3.42 ± 0.23 | -1.43 ± 0.2
73 | AGUAAGCAAUAUUACGCAUG | -3.12 ± 0.17 | -1.95 ± 0.23
74 | AGUAAGCAAUAUUACGCCGG | -2.45 ± 0.39 | -1.99 ± 0.34
75 | AGUAAGCAAUAUUACGCGAG | -3.33 ± 0.21 | -1.75 ± 0.15

Row | Sequence | self-splicing fitness (ln) (30 °C) | self-splicing fitness (ln) (37 °C)
76 | AGUAAGCAAUAUUACGGAAA | -3.26 ± 0.41 | -0.269 ± 0.23
77 | AGUAAGCAAUAUUACGGACG | -0.782 ± 0.093 | -0.415 ± 0.12
78 | AGUAAGCAAUAUUACGGAUC | -1.39 ± 0.12 | -1.31 ± 0.1
79 | AGUAAGCAAUAUUACGGCCU | 0.0223 ± 0.17 | -0.034 ± 0.26
80 | AGUAAGCAAUAUUACGGCGC | -1.02 ± 0.11 | -0.433 ± 0.13
81 | AGUAAGCAAUAUUACGGGCC | -1.48 ± 0.2 | -0.26 ± 0.15
82 | AGUAAGCAAUAUUACGGGGC | -3.29 ± 0.36 | -2.29 ± 0.34
83 | AGUAAGCAAUAUUACGGUAG | -3.89 ± 0.23 | -3.44 ± 0.29
84 | AGUAAGCAAUAUUACGGUUU | -1.45 ± 0.092 | -0.554 ± 0.11
85 | AGUAAGCAAUAUUACGUAUC | -3.99 ± 0.33 | -0.681 ± 0.23
86 | AGUAAGCAAUAUUACGUGCA | -1.36 ± 0.085 | -0.712 ± 0.092
87 | AGUAAGCAAUAUUACGUGGA | -3.8 ± 0.4 | -3.85 ± 0.39
88 | AGUAAGCAAUAUUACGUUAC | -3.26 ± 0.24 | -2.61 ± 0.27
89 | AGUCAGCAAUAUUACGAAAA | -1.63 ± 0.17 | -1.3 ± 0.2
90 | AGUCAGCAAUAUUACGAAGC | -3.56 ± 0.18 | -2.03 ± 0.17
91 | AGUCAGCAAUAUUACGACUU | -2.13 ± 0.11 | -1.96 ± 0.19
92 | AGUCAGCAAUAUUACGAGAU | -2.61 ± 0.11 | -1.76 ± 0.1
93 | AGUCAGCAAUAUUACGAGCA | -0.935 ± 0.12 | -0.0144 ± 0.14
94 | AGUCAGCAAUAUUACGAUCA | 0.171 ± 0.099 | 0.226 ± 0.11
95 | AGUCAGCAAUAUUACGAUUC | -3.27 ± 0.14 | -1.05 ± 0.1
96 | AGUCAGCAAUAUUACGCAUC | -1.32 ± 0.1 | -0.329 ± 0.12
97 | AGUCAGCAAUAUUACGCCCG | -0.925 ± 0.12 | -1.52 ± 0.17
98 | AGUCAGCAAUAUUACGCUCU | -1.01 ± 0.2 | -0.342 ± 0.21
